Test system: TN1 PDX tumor cells
Experiment: ex vivo aggregation (clustering) assay of dissociated PDX tumor cells, IncuCyte time-lapse imaging
Assay type: cell-based, human
Settings: media supplemented with EGF (10 ng/ml)
Experimental: Cell clustering assay. Freshly dissociated primary tumor cells in single cell suspension were seeded in collagen type I-coated 96-well plates. The plates were put into the IncuCyte live cell imaging system (Essen BioScience), and live images were taken every 2-4 h for up to one week. The cluster number and size were analyzed by Incucyte ZOOM software (Essen BioScience). In specific experiments, primary tumor cells might be sorted based on the expression of CD44 prior to seeding. In other experiments, seeded tumor cells might be transfected with siRNAs (100 nM) or treated with various inhibitors during the clustering assays. For cell viability analysis during clustering, the IncuCyte Cytotox Red reagent (Essen BioScience) was added to the medium according to the manufacturer's instructions.

B1: EGF: epidermal growth factor supplemented to culture media at 10 ng/ml (protein, UniProt P01133 23-1207, looked up)
Pro-epidermal growth factor: PQHWSCPEGTLAGNGNSTCVGPAPFLIFSHGNSIFRIDTEGTNYEQLVVDAGVSVIMDFHYNEKRIYWVDLERQLLQRVFLNGSRQERVCNIEKNVSGMAINWINEEVIWSNQQEGIITVTDMKGNNSHILLSALKYPANVAVDPVERFIFWSSEVAGSLYRADLDGVGVKALLETSEKITAVSLDVLDKRLFWIQYNREGSNSLICSCDYDGGSVHISKHPTQHNLFAMSLFGDRIFYSTWKMKTIWIANKHTGKDMVRINLHSSFVPLGELKVVHPLAQPKAEDDTWEPEQKLCKLRKGNCSSTVCGQDLQSHLCMCAEGYALSRDRKYCEDVNECAFWNHGCTLGCKNTPGSYYCTCPVGFVLLPDGKRCHQLVSCPRNVSECSHDCVLTSEGPLCFCPEGSVLERDGKTCSGCSSPDNGGCSQLCVPLSPVSWECDCFPGYDLQLDEKSCAASGPQPFLLFANSQDIRHMHFDGTDYGTLLSQQMGMVYALDHDPVENKIYFAHTALKWIERANMDGSQRERLIEEGVDVPEGLAVDWIGRRFYWTDRGKSLIGRSDLNGKRSKIITKENISQPRGIAVHPMAKRLFWTDTGINPRIESSSLQGLGRLVIASSDLIWPSGITIDFLTDKLYWCDAKQSVIEMANLDGSKRRRLTQNDVGHPFAVAVFEDYVWFSDWAMPSVMRVNKRTGKDRVRLQGSMLKPSSLVVVHPLAKPGADPCLYQNGGCEHICKKRLGTAWCSCREGFMKASDGKTCLALDGHQLLAGGEVDLKNQVTPLDILSKTRVSEDNITESQHMLVAEIMVSDQDDCAPVGCSMYARCISEGEDATCQCLKGFAGDGKLCSDIDECEMGVPVCPPASSKCINTEGGYVCRCSEGYQGDGIHCLDIDECQLGEHSCGENASCTNTEGGYTCMCAGRLSEPGLICPDSTPPPHLREDDHHYSVRNSDSECPLSHDGYCLHDGVCMYIEALDKYACNCVVGYIGERCQYRDLKWWELRHAGHGQQQKVIVVAVCVVVLVMLLLLSLWGAHYYRTQKLLSKNPKNPYEESSRDVRSRRPADTEDGMSSCPQPWFVVIKEHQDLKNGGQPVAGEDGQAADGSMQPTSWRQEPQLCGMGTEQGCWIPVSSDKGSCPQVMERSFHMPSYGTQTLEGGVEKPHSLLSANPLWQQRALDPPHQMELTQ
modifications: Pro-epidermal growth factor
notes: epidermal growth factor supplemented to culture media at 10 ng/ml
- cluster formation of TN primary tumor cells: increased cluster formation

Reference: US20220002429A1, “TUMOR CELL AGGREGATION INHIBITORS' FOR TREATING CANCER” (Northwestern University, priority 2018, published 2022)
